# Measurements from patent US9243044B2, “Anticoagulant polypeptide and applications thereof” (GUANGDONG MEDICAL COLLEGE, priority 2011, dated 2016).
# Entries after “also recorded” stand apart in the source; their conditions may differ. Marks after values point to notes of the source that are not given here.
# B1: NAPTin-1 (protein)
# chain: NPSCGENERHDECSRKECDPKCKYDGTEEKDDEKPVVCLTRVCYGDCICRDGFLRNKNGACVKAEDCELD
# modifications: Sequence derived from Ancylostoma caninum or Synthetic
# Columns and labels:
# SD rats [1] = experiment: Rat clotting time after i.v. injection, PT; type: in vivo; details: for Clotting time PT: rat plasma 2 min after injection
# Method: (§1) 40 SPF grade male SD rats (provided by the laboratory animal center of Guangdong Medical College, 300-350 g body weight) were randomly divided into a line group, and rNAPTin-1 low-dose (100 μg·kg^−1), middle-dose (1 mg·kg^−1), high dose group (5 mg·kg^−1), 10 rats each group. 2 min after intravenous injection of various rNAPTin-1, blood was harvested from animal heart, and injected into an anticoagulant tube (3.8% sodium citrate). Animal plasma was separated by centrifugation (1500×g, 10 mins) and was used to measure aPTT and PT.
# SD rats [2] = experiment: Rat carotid artery thrombosis (FeCl3); type: in vivo; details: for Inhibition rate %: vs model group
# Method: 50 SPF grade male SD rats (provided by the laboratory animal center of Guangdong Medical College, 300-350 g body weight) were randomly divided into sham operation group (except without the FeCl3, the remaining steps with other groups), model group, and rNAPTin-1 low dose (100 μg·kg^−1), middle dose (1 mg·kg^−1), high dose group (5 mg·kg^−1), 10 rats each group, respectively. These rats were anaesthetized with 10% chloral hydrate (250 mg/kg) by intraperitoneal injection. The right carotid artery was isolated by making a midline cervical incision followed by blunt dissection to expose a 1 cm segment of the vessel from the carotid sheath, and then a 0.6 cm wide sealing adhesive strip was inserted. After 5 mins of tail intravenous injection of drugs, separation spare the common carotid artery segment was ring wrapped by filter paper (1.0 cm×0.5 cm) soaked in 20% FeCl3 solution and sealed with strip seal. After 15 mins, the filter strips was remove. 40 mins later, the blood vessels ligation at both ends of filter paper was ligated. The vascular segment of the paper strip wrapped was precisely cut followed sucked excess blood in blood vessels with a clean filter paper, and wet weight including thrombotic vascular was accurately weighed, then weighed again after removing blood clots. The difference is the quality of the thrombus within the 0.5 cm long vessel segment. In sham operation, FeCl3 immersion filter strips were replaced with normal saline immersion filter strips.
# SD rats [3] = experiment: Rat clotting time after i.v. injection, aPTT; type: in vivo; details: for Clotting time aPTT: rat plasma 2 min after injection
# Method: as §1
# fVIIa/TF = biological target: T1, fVIIa/TF (Homo sapiens, UniProt P08709); experiment: Chromogenic assay, fVIIa/TF; type: biochemical
# T1 construct: Recombinant fVIIa was products of Novo-Nordisk (Denmark); purchased Novo-Nordisk (Denmark) for fVIIa; Protgen (Beijing, China) for sTF; Haematologic Technologies Inc for EGR-fXa
# Text: The recombinant anticoagulant polypeptides in the present invention were expressed in E. coli and purified in our laboratory, of which the activities against coagulation factors were investigated by chromogenic assays. Human coagulation factors IIa (thrombin), Xa, XIa, XIIa, EGR-fXa were products of Haematologic Technologies Inc (United States). Recombinant fVIIa was products of Novo-Nordisk (Denmark). Recombinant soluble tissue factor (sTF) was purchased from Protgen (Beijing, China). The following chromogenic substrates were used for these coagulation factor assays: S2765 for human fXa, S2288 for human fVIIa and fIIa, 52366 for human fXIa and fXIIa, respectively.
# The chromogenic assays were carried out in a total reaction volume of 100 μl in individual wells of a 96-well microtiter plate. 50 μl fIIa, fXa, fXIa, or fXIIa (final concentration: 1 nM) was incubated with 10 μl recombinant anticoagulant polypeptide at various concentrations (or PBS control group) Assays for the detection activity of fVIIa: 50 μl fVIIa+TF (1 μM) and EGR-fXa (final concentration 500 nM) was incubated for 15 mins at 25° C., respectively. After the addition of 40 μl of prewarmed chromogenic substrate to a final concentration of 400 μM, the changes of absorbance at 405 nm were monitored by using an E1x808 kinetic microtiter reader. The data were used to calculate the velocities of response.
# BALb/c mice = experiment: Mouse tail bleeding time; type: in vivo; details: tail transected after 10 min
# Method: After 10 min, the distal tip 1.5 mm of the mouse tail was transected and the blood oozed was soaked with filter paper very 30 seconds until the bleeding stops. The bleeding time was defined as the time elapsed from the tail transection to the stoppage of bleeding.
# normal human plasma = experiment: aPTT assay in normal human plasma; type: biochemical; details: for aPTT: normal human plasma; for multiples of prolonging aPTT: ratio of mean aPTT to blank control
# Method: The recombinant anticoagulant polypeptides were expressed in Escherichia coli and purified in our laboratory. Anticoagulant activity was determined by measuring the aPTT and PT.
# For the aPTT assay, 10 μl recombinant protein at various concentrations was mixed with 50 μl fresh normal human plasma, 20 μl aPTT reagent (MDC Hemostasis, Germany) and incubated for 15 mins at 37° C. 20 μl 0.05 mol/L prewarmed CaCl2 was then added to initiate the clotting reaction. The clotting time was measured with the absorbance at 630 nm by using an E1x808 kinetic microtiter reader (BioTek, United States). Each concentration was repeated 3 times. The ratio of the mean aPTT value of each concentration to blank control group is multiples of prolonging the aPTT.
# T1 sequence (P08709 61-212 limits assumed): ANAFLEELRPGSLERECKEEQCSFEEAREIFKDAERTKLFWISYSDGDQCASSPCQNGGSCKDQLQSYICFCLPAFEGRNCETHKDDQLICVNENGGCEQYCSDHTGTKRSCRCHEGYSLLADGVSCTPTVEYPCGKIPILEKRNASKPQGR
# T1 sequence (P08709 213-466 limits assumed): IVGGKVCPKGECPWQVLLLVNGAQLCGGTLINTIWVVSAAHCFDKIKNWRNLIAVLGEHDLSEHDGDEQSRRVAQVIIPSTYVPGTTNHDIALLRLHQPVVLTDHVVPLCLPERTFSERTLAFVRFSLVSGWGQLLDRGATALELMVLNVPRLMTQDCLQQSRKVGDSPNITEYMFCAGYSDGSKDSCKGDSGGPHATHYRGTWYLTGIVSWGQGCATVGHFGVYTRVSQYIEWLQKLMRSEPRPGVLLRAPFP
# T1 sequence (P13726 33-251 partner limits assumed): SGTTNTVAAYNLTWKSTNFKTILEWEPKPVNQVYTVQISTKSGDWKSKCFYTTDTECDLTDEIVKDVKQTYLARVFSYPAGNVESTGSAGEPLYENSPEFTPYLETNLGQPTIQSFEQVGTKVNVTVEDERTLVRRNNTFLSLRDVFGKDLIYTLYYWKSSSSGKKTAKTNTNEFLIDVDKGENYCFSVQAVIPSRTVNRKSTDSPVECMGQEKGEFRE
molecule,measurement,setting,value
B1,Clotting time PT,SD rats [1]; 0.1 mg/kg i.v.,11.8 ± 0.5
same,Clotting time PT,SD rats [1]; 1.0 mg/kg i.v.,12.0 ± 0.3
same,Clotting time PT,SD rats [1]; 5.0 mg/kg i.v.,11.5 ± 0.8
same,effect on rat PT (in words),SD rats [1]; 0.1-5 mg/kg i.v.,not prolonged PT
same,wet weight of thrombus,SD rats [2]; 100 μg·kg^−1 i.v.,1.5 ± 0.2 mg
same,Inhibition rate %,SD rats [2]; 100 μg·kg^−1 i.v.,66.7%
same,wet weight of thrombus,SD rats [2]; 1 mg·kg^−1 i.v.,0.5 ± 0.3 mg
same,Inhibition rate %,SD rats [2]; 1 mg·kg^−1 i.v.,88.9%
same,wet weight of thrombus (mg),SD rats [2]; 5 mg·kg^−1 i.v.,0* mg
same,Inhibition rate %,SD rats [2]; 5 mg·kg^−1 i.v.,100%
same,Clotting time aPTT,SD rats [3]; 0.1 mg/kg i.v.,23.5 ± 2.1
same,Clotting time aPTT,SD rats [3]; 1.0 mg/kg i.v.,56.3 ± 5.1
same,Clotting time aPTT,SD rats [3]; 5.0 mg/kg i.v.,136.7 ± 35.5
same,effect on rat aPTT (in words),SD rats [3]; 0.1-5 mg/kg i.v.,prolonged significantly aPTT
same,effect on fVIIa/TF activity (in words),fVIIa/TF; 100 nM,without affecting; also recorded: no significant inhibitory activity
same,effect on fVIIa/TF activity (in words),fVIIa/TF; 200 nM,without affecting
same,Bleeding time,BALb/c mice; 100 μg·kg^−1 tail vein,8.34 ± 1.7 min
same,Bleeding time,BALb/c mice; 1 mg·kg^−1 tail vein,8.30 ± 2.1 min
same,Bleeding time,BALb/c mice; 5 mg·kg^−1 tail vein,8.28 ± 2.3 min
same,prolongation of aPTT (in words),normal human plasma; 100 nM and 500 nM,significantly prolong aPTT
same,aPTT,normal human plasma; 100 nM,79.2 ± 3.5 s
same,multiples of prolonging aPTT,normal human plasma; 100 nM,1.98
same,aPTT,normal human plasma; 500 nM,228.3 ± 7.4 s
same,multiples of prolonging aPTT,normal human plasma; 500 nM,5.69
